Here are results for one molecule from article PMC4850058, “TRIP6 antagonizes the recruitment of A20 and CYLD to TRAF6 to promote the LPA2 receptor-mediated TRAF6 activation” (Cell Discovery, 2016).

The target in this assay is T1, purified recombinant TRIP6 (UniProt Q15654 1-476).
T1 construct: TRIP6; source: purified recombinant protein
T1 sequence (looked up): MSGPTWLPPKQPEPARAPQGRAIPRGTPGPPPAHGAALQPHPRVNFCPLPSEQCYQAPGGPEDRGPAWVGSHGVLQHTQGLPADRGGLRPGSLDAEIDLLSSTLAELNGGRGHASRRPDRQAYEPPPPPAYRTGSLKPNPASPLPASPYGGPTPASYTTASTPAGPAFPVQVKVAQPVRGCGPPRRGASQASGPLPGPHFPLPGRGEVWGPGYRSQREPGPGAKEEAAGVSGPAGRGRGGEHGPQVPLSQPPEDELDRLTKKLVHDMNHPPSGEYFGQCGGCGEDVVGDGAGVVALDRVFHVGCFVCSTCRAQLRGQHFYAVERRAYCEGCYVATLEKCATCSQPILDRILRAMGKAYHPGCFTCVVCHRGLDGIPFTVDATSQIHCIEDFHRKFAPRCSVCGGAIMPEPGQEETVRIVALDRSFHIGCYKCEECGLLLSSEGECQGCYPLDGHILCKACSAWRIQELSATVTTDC
Description: pull-down; purified recombinant TRIP6 incubated with GST, GST-TRAF6 or GST-CT, 4 °C, 3 h; anti-TRIP6 immunoblot. Particulars: both partners purified.

B1: GST-CT mutant containing residues 239–530 of TRAF6 (domain or fragment, UniProt P70196 239-530, looked up)
chain: PIPCTFSVFGCHEKMQRNHLARHLQENTQLHMRLLAQAVHNVNLALRPCDAASPSRGCRPEDPNYEETIKQLESRLVRQDHQIRELTAKMETQSMYVGELKRTIRTLEDKVAEMEAQQCNGIYIWKIGNFGMHLKSQEEERPVVIHSPGFYTGRPGYKLCMRLHLQLPTAQRCANYISLFVHTMQGEYDSHLPWPFQGTIRLTILDQSEALIRQNHEEVMDAKPELLAFQRPTIPRNPKGFGYVTFMHLEALRQGTFIKDDTLLVRCEVSTRFDMGGLRKEGFQPRSTDAGV
notes: TRAF6 carboxyl-terminal domain, residues 239-530; also called TRAF6-CT domain; carboxyl-terminal domain; source: purified recombinant GST-tagged protein (pGEX-6P3)
Regarding B1, the binding result is “binds”.
